Experimental findings from PMC5027585, “TSPO ligands stimulate ZnPPIX transport and ROS accumulation leading to the inhibition of P. falciparum growth in human blood” (Scientific Reports, 2016) are described below.

Several values for one entry are separate records, joined by “and”; a condition that tells them apart may be missing. Equal values may be shown once.

This data set deals with the molecule itself. The experiment in a line: SDS-PAGE and immunoblot (SDS-resistant forms); ghosts of healthy and infected RBCs in 5P8 buffer, solubilised in 1% Triton X-100, denaturing SDS-PAGE, immunoblot; oligomeric state read from the size of the bands. For orientation: In western blotting, separated proteins are transferred to a membrane and probed.

The stoichiometry N is the number of molecules, sites or subunits per partner or assembly.

B1: TranSlocator PrOtein 2 (TSPO2) (natural protein, human (endogenous in red blood cells), UniProt Q5TGU0 1-170, looked up)
chain: MRLQGAIFVLLPHLGPILVWLFTRDHMSGWCEGPRMLSWCPFYKVLLLVQTAIYSVVGYASYLVWKDLGGGLGWPLALPLGLYAVQLTISWTVLVLFFTVHNPGLALLHLLLLYGLVVSTALIWHPINKLAALLLLPYLAWLTVTSALTYHLWRDSLCPVHQPQPTEKSD
notes: TSPO2, human, second TSPO isoform, endogenous in mature red blood cells; detected with a rabbit antibody against the 13 C-terminal residues of hTSPO2; also called hTSPO2; source: endogenous, human red blood cell membranes (ghosts) or Triton X-100 lysate of healthy and P. falciparum-infected RBCs
Turning to B1, the “stoichiometry N” value is 4 and 2.
